{"source": "patent US20260232732A1", "about": "(FUNDACI INSTITUT DE RECERCA CONTRA LA LEUC MIA JOSEP …, published 2026)", "binders": {"B1": {"name": "Comparative antibody 1 (Comp-1) scFv, SEQ ID NO: 10 from WO2023/037125 A1, His-tagged (scFv)", "scFv": "QVQLKESGPGLVQPSQTLSLTCTVSGFSVASYDMHWVRLPPGKGLEWMGIIWANGNTHYNSGLKSRLSISRDTSKSQVFLKMNSLQTEDTAIYFCTRGGFAYWGQGTLVTVSSGGGGSGGGGSGGGGSGGGGSDVVMTQTPVSLSVSLGGQVSISCRSSQSLVHNNGNTYLSWYLQKPGQSPQLLIYKVSNRFSGVSDRFSGSGSGTDFTLKISRVEPDDLGVYYCGQGTQYPTFGGGTKLELKHHHHHH"}, "B2": {"name": "anti-CCR9 antibody clone 115 (murine, from hybridoma #115) (antibody, V domains shown)", "VH": "QVQLKQSGPELVKPGTSVRVSCTASGYSFTDYIIYWVKQSHGRSLEWIGYIDPNNYNTRYSQKFKGKATLTVDKSSTSAFMHLNSLTSDDSAVYYCARDVYWGQGTTLTVSS", "VL": "DVVMTQTPLSLTVSLGDQASISCRSSQSLVHSNGKTYLQWYLQKPGQSPKLLIYKVSNRFSGVPDRFSGSGSGTDFTLKISRVEAEDLGVYFCAQSTHVWTFGGGTKLEIKR", "notes": "Mouse IgG1"}, "B3": {"name": "CCR9_HUM2 scFv (humanized anti-CCR9 scFv, SEQ ID NO: 17 with C-terminal 6xHis tag) (scFv)", "scFv": "QVQLVQSGAEVKKPGASVKVSCTASGYSFTDYIIYWVKQAHGQSLEWMGYIDPNNYNTRYSQKFQGKVTITVDKSSTSAYMELNSLTSDDTAVYYCARDVYWGQGTTVTVSSGGGGSGGGGSGGGGSGGGGSDVVMTQTPLSLSVTPGQPASISCRSSQSLVHSNGKTYLQWYLQKPGQSPKLLIYKVSNRFSGVPDRFSGSGSGTDFTLKISRVEAEDVGVYFCAQSTHVWTFGGGTKVEIKRAHHHHHH"}}, "key": {"[1]": {"target": "T1, biotin-peptide TSSMEDYVNF (human)", "T1 peptide": "Biotin-TSSMEDYVNF", "test": "ELISA, biotin-peptide"}, "[2]": {"target": "T2, biotin-peptide KNNVRQFAS (human)", "T2 peptide": "Biotin-KNNVRQFAS", "test": "ELISA, biotin-peptide"}, "[3]": {"target": "T3, biotin-peptide YCEKNNVRQF (human)", "T3 peptide": "Biotin-YCEKNNVRQF", "test": "ELISA, biotin-peptide"}, "[4]": {"target": "T4, biotin-peptide MTPTDFTSPI (human, also: prints MTPTDFTSP, without I10)", "T4 peptide": "Biotin-MTPTDFTSPI", "test": "ELISA, biotin-peptide"}, "[5]": {"target": "T5, biotin-peptide MEDYVNFNFT (human)", "T5 peptide": "Biotin-MEDYVNFNFT", "test": "ELISA, biotin-peptide"}, "[6]": {"target": "T6, Peptide 3, non-conjugated (SSMEDYVNFN-C) (human)", "T6 construct": "With the extra C-terminal Cys", "T6 peptide": "SSMEDYVNFNC", "test": "ELISA; Ab 0.125 ug/mL; repII", "protocol": "(§1) In brief, plates with each non-conjugated peptide (50 μg/mL) or BSA-conjugated peptide (5 μg/mL) were coated in 0.58M carbonate-bicarbonate buffer pH9.5, 100 μL/well, at 4° C. […] After washing, wells were incubated with the 3, 3′,5,5′-Tetramethylbenzidine (TMB) HRP substrate and reactions were stopped with 2M HCl and OD450 was recorded."}, "[7]": {"target": "T7, antigen peptide-BSA (immunisation peptide #1 MADDYGSESTSSMEDYVNFNF-C conjugated to BSA) (human, extra C-terminal Cys conjugated to BSA)", "T7 construct": "also called Positive control antigen peptide-BSA; MADDY peptide", "T7 peptide": "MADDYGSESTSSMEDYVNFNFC", "test": "ELISA; Ab 0.125 ug/mL; repII", "protocol": "as §1"}, "[8]": {"target": "T8, Peptide 1-BSA (MADDYGSEST-C conjugated to BSA) (human)", "T8 peptide": "MADDYGSESTC(BSA)", "test": "ELISA; Ab 0.125 ug/mL; repII", "protocol": "as §1"}, "[9]": {"target": "T9, Peptide 2, non-conjugated (GSESTSSMED-C) (human)", "T9 construct": "With the extra C-terminal Cys", "T9 peptide": "GSESTSSMEDC", "test": "ELISA; Ab 0.125 ug/mL; repII", "protocol": "as §1"}, "[10]": {"target": "T10, Peptide 2-BSA (GSESTSSMED-C conjugated to BSA) (human)", "T10 peptide": "GSESTSSMEDC(BSA)", "test": "ELISA; Ab 0.125 ug/mL; repII", "protocol": "as §1"}, "[11]": {"target": "T11, Peptide 3-BSA (SSMEDYVNFN-C conjugated to BSA) (human)", "T11 peptide": "SSMEDYVNFNC(BSA)", "test": "ELISA; Ab 0.125 ug/mL; repII", "protocol": "as §1"}, "[12]": {"target": "T12, BSA (negative control coating) (bovine, UniProt P02769 25-607)", "T12 construct": "also called Negative control BSA", "T12 sequence (P02769 25-607 limits assumed)": "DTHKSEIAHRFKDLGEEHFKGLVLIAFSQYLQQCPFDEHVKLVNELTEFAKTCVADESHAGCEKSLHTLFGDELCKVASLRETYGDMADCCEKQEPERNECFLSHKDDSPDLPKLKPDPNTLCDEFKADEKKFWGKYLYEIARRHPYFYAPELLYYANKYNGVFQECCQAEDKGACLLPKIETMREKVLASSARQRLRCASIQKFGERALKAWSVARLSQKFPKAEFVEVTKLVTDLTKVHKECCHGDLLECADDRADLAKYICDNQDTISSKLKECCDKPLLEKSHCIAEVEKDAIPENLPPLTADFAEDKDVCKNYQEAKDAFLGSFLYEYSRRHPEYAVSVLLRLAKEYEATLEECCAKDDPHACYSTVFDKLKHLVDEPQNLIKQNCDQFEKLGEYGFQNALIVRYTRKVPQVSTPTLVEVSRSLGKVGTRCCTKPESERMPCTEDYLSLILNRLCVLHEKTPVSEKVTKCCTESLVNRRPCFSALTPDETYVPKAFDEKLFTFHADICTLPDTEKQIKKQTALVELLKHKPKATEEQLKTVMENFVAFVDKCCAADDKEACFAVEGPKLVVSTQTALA", "test": "ELISA; Ab 0.125 ug/mL; repII", "protocol": "as §1"}, "[13]": {"target": "T13, Peptide 1, non-conjugated (MADDYGSEST-C) (human)", "T13 construct": "With the extra C-terminal Cys", "T13 peptide": "MADDYGSESTC", "test": "ELISA; Ab 0.125 ug/mL; repII", "protocol": "as §1"}, "[14]": {"target": "T14, Peptide 4-BSA (SMEDYVNFNF-C conjugated to BSA) (human)", "T14 peptide": "SMEDYVNFNFC(BSA)", "test": "ELISA; Ab 0.125 ug/mL; repII", "protocol": "as §1"}, "[15]": {"target": "T15, Peptide 4, non-conjugated (SMEDYVNFNF-C) (human)", "T15 construct": "With the extra C-terminal Cys", "T15 peptide": "SMEDYVNFNFC", "test": "ELISA; Ab 0.125 ug/mL; repII", "protocol": "as §1"}, "[16]": {"target": "T6, Peptide 3, non-conjugated (SSMEDYVNFN-C)", "test": "ELISA; Ab 0.0625 ug/mL; repII", "protocol": "as §1"}, "[17]": {"target": "T7, antigen peptide-BSA (immunisation …)", "test": "ELISA; Ab 0.0625 ug/mL; repII", "protocol": "as §1"}, "[18]": {"target": "T8, Peptide 1-BSA (MADDYGSEST-C conjugated …)", "test": "ELISA; Ab 0.0625 ug/mL; repII", "protocol": "as §1"}, "[19]": {"target": "T9, Peptide 2, non-conjugated (GSESTSSMED-C)", "test": "ELISA; Ab 0.0625 ug/mL; repII", "protocol": "as §1"}, "[20]": {"target": "T10, Peptide 2-BSA (GSESTSSMED-C conjugated …)", "test": "ELISA; Ab 0.0625 ug/mL; repII", "protocol": "as §1"}, "[21]": {"target": "T11, Peptide 3-BSA (SSMEDYVNFN-C conjugated …)", "test": "ELISA; Ab 0.0625 ug/mL; repII", "protocol": "as §1"}, "[22]": {"target": "T12, BSA (negative control coating)", "test": "ELISA; Ab 0.0625 ug/mL; repII", "protocol": "as §1"}, "[23]": {"target": "T13, Peptide 1, non-conjugated (MADDYGSEST-C)", "test": "ELISA; Ab 0.0625 ug/mL; repII", "protocol": "as §1"}, "[24]": {"target": "T14, Peptide 4-BSA (SMEDYVNFNF-C conjugated …)", "test": "ELISA; Ab 0.0625 ug/mL; repII", "protocol": "as §1"}, "[25]": {"target": "T15, Peptide 4, non-conjugated (SMEDYVNFNF-C)", "test": "ELISA; Ab 0.0625 ug/mL; repII", "protocol": "as §1"}, "[26]": {"target": "T5, biotin-peptide MEDYVNFNFT", "test": "ELISA biotin-peptide; scFv 2.5 ug/mL; repI", "protocol": "The peptides were synthesized naked or with a N-terminal Biotin modification with a purity of >98%. All four scFvs were verified by ELISA that can be detected with anti-His antibodies. ELISA was performed for scFv-peptide binding validation. Briefly, naked peptides were coated (50 μg/mL) in 0.58M carbonate-bicarbonate buffer pH9.5, 100 μL/well, 4° C. O/N. Then after blocking (3% BSA-PBS, 300 μL/well 37° C. 1.5 h) and washing (PBS+Tween-20 0.05% v/v (0.05% PBST), wells were incubated with each purified scFv antibody at concentration of 1 μg/mL in PBS at 37° C. 1 h. After washing (0.05% PBST), wells were incubated with secondary antibodies (goat anti-His IgG-HRP) in PBS, 37° C., 30 min. After washing, and incubation with TMB substrate, reactions were stopped with 2M HCl and reading was quantified at OD450.\nELISA with biotin-conjugated peptides (5 μg/mL) was performed very similar to described above with minor modifications.\nA full curve ELISA was performed for each positive scFv/biotin-peptide pair in order to confirm previous results. Tables 15-17 show ELISA results of the dose-dependent full curve for each positive peptide with scFv “CCR9_HUM”, “Comp-2” and “Comp-3”, respectively."}}, "note": "Where no end group is shown, it is not given here. The star is where a group is joined. Biotin = O=C1N[C@H]2[C@H](CS[C@H]2CCCCC(=O)*)N1", "data": [{"binder": "B1", "values": [{"measurement": "binding result", "setting": "[1]", "value": "no binding (tested: 10 ug/mL)"}, {"measurement": "binding result", "setting": "[2]", "value": "no binding (tested: 10 ug/mL)"}, {"measurement": "binding result", "setting": "[3]", "value": "no binding (tested: 10 ug/mL)"}, {"measurement": "binding result", "setting": "[4]", "value": "no binding (tested: 10 ug/mL)"}, {"measurement": "binding result", "setting": "[5]", "value": "no binding (tested: 10 ug/mL)"}]}, {"binder": "B2", "values": [{"measurement": "OD450", "setting": "[6]", "value": 1.77, "unit": "OD"}, {"measurement": "OD450", "setting": "[7]", "value": 2.31, "unit": "OD"}, {"measurement": "OD450", "setting": "[8]", "value": 0.01, "unit": "OD"}, {"measurement": "OD450", "setting": "[9]", "value": 0.01, "unit": "OD"}, {"measurement": "OD450", "setting": "[10]", "value": 0.01, "unit": "OD"}, {"measurement": "OD450", "setting": "[11]", "value": 1.97, "unit": "OD"}, {"measurement": "OD450", "setting": "[12]", "value": 0.01, "unit": "OD"}, {"measurement": "OD450", "setting": "[13]", "value": 0.02, "unit": "OD"}, {"measurement": "OD450", "setting": "[14]", "value": 2.39, "unit": "OD"}, {"measurement": "OD450", "setting": "[15]", "value": 1.84, "unit": "OD"}, {"measurement": "OD450", "setting": "[16]", "value": 1.67, "unit": "OD"}, {"measurement": "OD450", "setting": "[17]", "value": 2.08, "unit": "OD"}, {"measurement": "OD450", "setting": "[18]", "value": 0.01, "unit": "OD"}, {"measurement": "OD450", "setting": "[19]", "value": 0.01, "unit": "OD"}, {"measurement": "OD450", "setting": "[20]", "value": 0.01, "unit": "OD"}, {"measurement": "OD450", "setting": "[21]", "value": 1.78, "unit": "OD"}, {"measurement": "OD450", "setting": "[22]", "value": 0.01, "unit": "OD"}, {"measurement": "OD450", "setting": "[23]", "value": 0.01, "unit": "OD"}, {"measurement": "OD450", "setting": "[24]", "value": 2.01, "unit": "OD"}, {"measurement": "OD450", "setting": "[25]", "value": 1.19, "unit": "OD"}]}, {"binder": "B3", "values": [{"measurement": "OD450", "setting": "[26]", "value": 1.66, "unit": "OD"}]}]}
